Laboratory results: US20120058116A1 (published 2012)

B1: Ex4-ScrH (antibody, mouse IgG2a, kappa)
heavy: not shown
light: DIVMTQSPSSLSASVGDRVTITCKASQNVGTNVAWYQQKPGKAPKALIYSASYRYSGVPDRFSGSGSGTDFTLTISSLQPEDFATYYCQQYNSYPLTFGGGTKVEIKRTDAAPTVSIFPPSSEQLTSGGASVVCFLNNFYPKDINVKWKIDGSERQNGVLNSWTDQDSKDSTYSMSSTLTLTKDEYERHNSYTCEATHKTSTSPIVKSFNRNEC
B2: GLP-1ScrH (antibody, mouse IgG2a, kappa)
heavy: HGEGTFTSDVSSYLEGQAAKEFIAWLVKGRGSGGGGSGGGGSGQVQLVQSGSELKKPGASVKVSCKASGYTFTNYGMNWVRQAPGQGLEWMGWINTRNGKSTYVDDFKGRFVFSLDTSVSTAYLQISSLKADDTAVYYCAREGNMDGYFPFTYWGQGTLVTVSSAKTTAPSVYPLAPVCGDTTGSSVTLGCLVKGYFPEPVTLTWNSGSLSSGVHTFPAVLQSDLYTLSSSVTVTSSTWPSQSITCNVAHPASSTKVDKKIEPRGPTIKPCPPCKCPAPNLAGAPSVFIFPPKIKDVLMISLSPIVTCVVVDVSEDDPDVQISWFVNNVEVHTAQTQTHREDYNSTLRVVSALPIQHQDWMSGKEFKCKVNNKDLPAPIERTISKPKGSVRAPQVYVLPPPEEEMTKKQVTLTCMVTDFMPEDIYVEWTNNGKTELNYKNTEPVLDSDGSYFMYSKLRVEKKNWVERNSYSCSVVHEGLHNHHTTKSFSRTPGK
light: B1 light
B3: Ex4-ScrL (antibody, mouse IgG2a)
heavy: QVQLVQSGSELKKPGASVKVSCKASGYTFTNYGMNWVRQAPGQGLEWMGWINTRNGKSTYVDDFKGRFVFSLDTSVSTAYLQISSLKADDTAVYYCAREGNMDGYFPFTYWGQGTLVTVSSAKTTAPSVYPLAPVCGDTTGSSVTLGCLVKGYFPEPVTLTWNSGSLSSGVHTFPAVLQSDLYTLSSSVTVTSSTWPSQSITCNVAHPASSTKVDKKIEPRGPTIKPCPPCKCPAPNLAGAPSVFIFPPKIKDVLMISLSPIVTCVVVDVSEDDPDVQISWFVNNVEVHTAQTQTHREDYNSTLRVVSALPIQHQDWMSGKEFKCKVNNKDLPAPIERTISKPKGSVRAPQVYVLPPPEEEMTKKQVTLTCMVTDFMPEDIYVEWTNNGKTELNYKNTEPVLDSDGSYFMYSKLRVEKKNWVERNSYSCSVVHEGLHNHHTTKSFSRTPGK
light: not shown
B4: GLP-1ScrL (antibody, mouse IgG2a)
heavy: B3 heavy
light: HGEGTFTSDVSSYLEGQAAKEFIAWLVKGRGSGGGGSGGGGSGDIVMTQSPSSLSASVGDRVTITCKASQNVGTNVAWYQQKPGKAPKALIYSASYRYSGVPDRFSGSGSGTDFTLTISSLQPEDFATYYCQQYNSYPLTFGGGTKVEIKRTVAAPTVSIFPPSSEQLTSGGASVVCFLNNFYPKDINVKWKIDGSERQNGVLNSWTDQDSKDSTYSMSSTLTLTKDEYERHNSYTCEATHKTSTSPIVKSFNRNEC
B5: Ex4-FGFR1cA1L (antibody, mouse IgG2a)
heavy: QVQLVQSGAEVKKPGSSVKVSCKASGQTFTGYYMHWVRQAPGQGLEWMGRIIPILGIAQKFQGRVTITADKSTSTAYMELSSLRSEDTAVYYCARGGDLGGMDVWGQGTLVTVSSAKTTAPSVYPLAPVCGDTTGSSVTLGCLVKGYFPEPVTLTWNSGSLSSGVHTFPAVLQSDLYTLSSSVTVTSSTWPSQSITCNVAHPASSTKVDKKIEPRGPTIKPCPPCKCPAPNLAGAPSVFIFPPKIKDVLMISLSPIVTCVVVDVSEDDPDVQISWFVNNVEVHTAQTQTHREDYNSTLRVVSALPIQHQDWMSGKEFKCKVNNKDLPAPIERTISKPKGSVRAPQVYVLPPPEEEMTKKQVTLTCMVTDFMPEDIYVEWTNNGKTELNYKNTEPVLDSDGSYFMYSKLRVEKKNWVERNSYSCSVVHEGLHNHHTTKSFSRTPGK
light: not shown
B6: Ex4-FGFR1cA1H (antibody, mouse IgG2a)
heavy: not shown
light: EIVLTQSPLSLPVTPGEPASISCRSSQSLRHSNGYNYLDWYLQKPGQSPQLLIYLASNRASGVPDRFSGSGSGTDFTLKISRVEAEDVGVYYCMQALQIPPTFGPGTKVDIKRTVAAPTVSIFPPSSEQLTSGGASVVCFLNNFYPKDINVKWKIDGSERQNGVLNSWTDQDSKDSTYSMSSTLTLTKDEYERHNSYTCEATHKTSTSPIVKSFNRNEC
B7: GLP1ScrH/L (antibody, mouse IgG2a)
heavy: B2 heavy
light: B4 light

target: GLP-1 receptor on CHO 6CRE GLP1R cells; test: cell-based or functional assay

Going from B1 to B2, the “Average EC50 (pM), luciferase reporter in CHO 6CRE GLP1R cells” value (“Average EC50 (pM), luciferase reporter” for short) rises from 153 pM to 485 pM.

Going from B3 to B4, the “Average EC50 (pM), luciferase reporter” value rises from 117 pM to 889 pM.

Compared with B5, B6 is higher in “Average EC50 (pM), luciferase reporter” value: 109 pM for the first, 117 pM for the second.

With B7 the “Average EC50 (pM), luciferase reporter” value was 475 pM.
